The nature of the series: label from the status in PepcDB records.
As to “MAKRFMCETLGTACLGLSMALAAPAAFALADIIETPARPTELAPQSLLTDATRAGDRIVSVGERGHVIYSDDQGQSWTQAEVPVAVTLTAVDFGTEQHGWVVGHSGVVLHSSDSGETWELQLDGIQAAELVIASKEDQIAELEERIEQAPEEEKADLEWALDDLFFALENTQADMEIGPVNPFLDVWFEDENHGFVVGAYGMILRTQDGGQTWEDWAPKLDNPTNFHYNSIAEVAGGALVVVGEAGQIHVSVDGGESWEKRESPYDGSLFGVTGTGRVNEVLAFGLRGNTLLSTDLGRSWTMVPNEGGATLNNAAVAEDGRITLVGNGGAVLMSTNNGESFRPYFRNDREGVMGVVPLPGTNLLLVGEGGVEITDARGRNLN”, the protein production result is “failed”. The entry for “MCSTNKNLACCKGDNVFDGQINGNESYPQVVNKQLPPKVLEPIIQNKIVEIPKEVYLEKIVEVPQIKTVERIVEQIRPVIKYKNVYKPKIVYVEKVKNVDKIIYQEKIVEVPQIKTVEKIVEVPVYVNRERIITVPRYMVVEKVIPVLKTSKRESIMEVPEVNCPHIDISKEVEDKEEIPINELKENQTISLADEKEIQILNDLTSQKVDSNATINMEGEQDTTVDTITQENFCGTVSCNFLPNYPNFSKIGNPLCKGGPEKEKRFSSISIYKSKDSGFPSIRIAKTPQMFQRNLYCSYA” is “failed”; for “MQQLQNVIETAFERRADITPANVDTVTREAITHVIDLLDTGALRVAEKIDGQWVTHQWLKKAVLLSFRINDNQVMEGAETRYYDKVPMKFAGYDEARFQREGFRVVPPATVRKGAFIARNTVLMPSYVNIGAFVDEGTMVDTWATVGSCAQIGKNVHLSGGVGIGGVLEPLQANPTIIEDNCFVGARSEVVEGVIVEEGSVISMGVFIGQSTRIYDRETGEVHYGRVPAGSVVVSGNLPSKDGSYSLYCAVIVKKVDAKTRSKVGINELLRTID” it is “not failed”; for “MKELAGKNLGVTTRFVLRYVFQNTIHSIWRERNERRHGEKPSRTEKIVKLIDKNIRNRLSTIRVRGEEKYAQGTQMRFASRQYQIDRTFL” it is “failed”. As for “MENQKMQEPLVYRRILLTVDEDDNTSSERAFRYATTLAHDYDVPLGICSVLESEDINIFDSLTPSKIQAKRKHVEDVVAEYVQLAEQRGVNQVEPLVYEGGDVDDVILEQVIPEFKPDLLVTGADTEFPHSKIAGAIGPRLARKAPISVIVVR”, the protein production entry is “not failed”. The entry for “MGQAFAALSVWQVMGYGLVFFGGIYLLFGAATWLLTRRVLPALGVGRPLDPRPLGPGQWRREFLQSGLSVLIFGLGMVFPWGLVQLGWARLDDDAGPWRIVAEILVLVIWNDVHFWINHRLLHTRLLRRFHLPHHRSVVTTPFSTYSFHPIEALMLGNVILLPMVVHDFSFWSLLSVPLFSLFFNCVGHANYDFFPGVSYAHWFAASRRHHLHHACYQGNFGFQFTFMDRLFGTRLGADAAQGQLAAYRKRGAVGSAR” is “failed”; for “MNDQVLRTQTDRRQLQQIIAGLTEGVILIEPDQRILWANEAALAMHGVDSLEGLGADTGEYRERFRLRYRNNHPLQEGQYPAERLVAGECFSDVVVEVFPAADEDTRWVHRVRGLVLTTPEDKPDCLVLILHDAT” it is “not failed”; for “MIIKNKMVKRLISTFLMSLLLASMMLVIGAGNVYAQGSVSSTSLQVSADGSDYYIIGSDFYNHFVRPTTVDLAKNKVVYNKQILTVYNGRIDKWKMSFLNQDSSGKSWFKFLSYPEATKGDIKITYTTDGINYSDSKPSLEQLKGYMVELLKPIVYPDDANNQENDIEVSFQLSPDTDYILSNSNLNKQFIPFSGENWLQNYSPYPFFTDRNQLQFVYPDYSKGVMVKYVDEEGNEIHDPQTISGSKGDVYDASTDQYKLVLDGYTLDTSKLPQNSIGNFKEALQTVTYVFSKNPVLAADVTVRYVDKENNPISEDIILQGNIGENYYTDKKILKIIL” it is “failed”. Turning to “MLRSSSVDRKREEEPRLSYMIARVDRIISKYLTEHLSALEISLPQFTALSVLAAKPNLSNAKLAERSFIKPQSANKILQDLLANGWIEKAPDPTHGRRILVTVTPSGLDKLNQCNQVVQQLEAQMLQGVDINLAFLIRNNLELMVKNLSTFSSLDQSKE”, the protein production result was “not failed”.

With “GSSGSSGDKKAYFYHSSFQILNVEYTEALNSPATHEYRTLSERIEAMITDEFRGSSLKSEFIRTHVVKLRKEGTGVVADVVMKFRSSKRNNRKVMKTRIQSVLRRLSSSGNLEIAPSNEITSLTDQDT”, the protein production result is given as “not failed”. The entry for “MHSDSGSDSGSDSGSGSPMVSSIHPSEPIQPMEHVLEEADARLLTEVGFLAAAVSDLTRADAIFNALQRVRPGRTHPCIGLAVARMNAGLPDEAAEILANFQPAQPEDRSELDAWCGFALLLAGRSDEARRMLQRAIDAGGEAARLAQVVLDSGPAMMRPAPLQSEPLPGAPG” is “failed”; for “MNSQEQRGSFYAILSGFLYGFIGYFGISAIHGDLSASNMLFWRFLISSIFILIVLIPQLKNINDTYKSMFTAFLSGVLYYGLSTLLYFYASLYIGSGLSMVIFFTYPVIIMVFNYFFYSQTIPKIYYLAISVILIGMALLIDVNEIAFDLWGIFLGLASAFFYACYIVSSKNNEISPNVSTLMVCLGCMTTSLIVACLDHTFKVPTSFPVWLNLFGIGLVATVIPILLMLHSLKYISSEKASILSVLEPVFVVIFGVVLLGEELKPWHALGIVLVLAGALITLFSHRINLNQWLGAIYKS” it is “failed”; for “MKIMTKTLNRTTLGLALGLASSQLLAAGFALNEQSISGMGTGFAGRSSSADDASTVFGNPAGMSRIKREQISVGAAAVIAKTDIDNGRGTFGGSNDGDMVPVVGVPMGYYVKPIDDHWAFGLGVYVPFGLVTDYEKGFAGRYWGDKSHVQIVTFQPTVSYAFNDKVSIGFGPTINRIDGELTSATLNAATPGRNDGKVKIEGDDTAIGFNAGILVQATDTTRLGLTYHSKVDYKLKGKTKIEGSGFGPFGGQKYDASLDISTPESVDFSITQQLDENWTVYAGSTWTRWSRLQDITVNNDGVPALLGGSAGPIGTITEEQNWHDTWAHAIGASYKVNKEWTLRTGFSVDQSPTNNVNRSPRIPTGDRKIISFGAGWSPTDDLTIDVAYSYLREDETKIRDSSATKGSYSADYRNTAHGLGTSVTYRF” it is “failed”. Then “MPVAEQPYHHGSLRRVLLARAESTLEKDGVDGLSLRQLAREAGVSHAAPSKHFRDRQALLDALAESGFLRLTAALERAVEEAESHARARFAALAGAYVSFALAHRELLALMYGNKHAPGAASQVVEAGHASMDLTVRIVTEAQAAGDIGPGDASRIALVAFATFHGIATLAAGGMLDGAPVDEVVTAASDTFWRGLAQA”, with “not failed”; and “MALLKWIPARGTLPLSPKWVATTLADASPDSVPVLFLHGTLGSPGNFERPAQRLAQLGRPFFAPAYGEHGTADLDRSTAELLRYVDHLRDMGIKQVDIVGHSAGGLQGLRIAHARPGFVRKLIGLGAAFRGVPRTVRFKPVVKLITGQAVIQLTQEIPAELPDGVELVSIYSTADHIVPVASSTLGELIEITDIRHEDLPRQADVIMEALGYPAETDSPTD”, with “failed”. For the sequence “QLRDFSSIIQTCSGNIQRISQATAQIKNLMSQLGTKQDSSKLQENLQQLQHSTNQLAKETNELLKELGSLPLPLSTSEQRQQRLQKERLMNDFSAALNNFQAVQRRVSEKEKESIAR”, the protein production result was “not failed”. The entry for “MFAYTLTTLTLCCTSILITSYISKRKGTLMEYMVFIMSFSMSIGLSIGFYLGILFKGELLYSTLLAILISGFIGFLIGLRFHLYTALEGMFSGLMASMMGAMITEMLNAQQAHSILFISLLLTITITMSCVIQLLSENFSTFIQQRFLLLLSISVVIIVAVFTTFPDHTPAPSPGHNQHIH” is “failed”; for “AIKHVKGNGKRTLYIFSDPDCPYCQRLEKELTAVDNVTIYLFLFPLTTLHPNAETIATQIWCSKNQYQAWQDYLLNHKAPTASQKCSTPIQKNLALGQKLNINGTPTMYLKNGERIAGAMQAGQLNTLLDQAQ” it is “failed”; for “MSTSMPTALAGGRYQLGQLIGRGGMAEVHVALDTRLGRTVAVKIMRADLANDDIFLARFRREAHAVAQMNNPNIVNIYDSGEELVSSESGDTERLPYIVMEYVKGQTLRDIIKVNGALSQRDCEQVLLGVLNALDYSHRMGIIHRDIKPGNIMISEQGVVKVMDFGIARALDDSAATMTQSQGVVGTAQYLSPEQARGETVDMRSDLYSAGCVLYEMLTGRPPFTGDSAVAIAYQHVSEVATPPSAVVPGLPKMWDSICAKAMAKDRQNRYATASEFKTDILTYMNGGVPVAAAFNPLTDLSNMKARKEAERDLPTTPVEPQQQPTQAFNPVTGQFEQIPPANGANSAALQSRAQQRAAAAKAKKRKKIIIGSVIAVLAVALVGAGVVFAMSGAPNKSAEDKVTIPEVCNASTSKDNIKLKLETLGLTMVGKQDTDSTEPEGTCTKMSPEAGAKVAKGSKVKVWFSAGPQSTQVPDVKERSQEEARSILESAGFKVNATVRTEDSADIAKDMVTKTDPAAGQSVPKGTTITIYVSSGMTTVPSNLVGQSKDSVLQQYEGRFSFTVEQESSDTVEAGLITRVSPDSGSSIAQGGSITIWVSTGKEKVAVPNIAAGTKYATAELMLKAVGLKAQANGPADPTAVVVGIDPGAGAQVDVGSTVTITTKAAVTGDNNGNGNGNAGGSSSTGGTGPGGDK” it is “failed”. Then “TEERLKEIEAKYDEIAKDWPKKVKHVLHEEHELELTRVQVYTCDKCEEEGTIWSYHCDECDFDLHAKCALNEDTKE”, with “not failed”; and “MDPNTVSSFQVDCFLWHVRKRLADQELGDAPFLDRLRRDQKSLRGRGNTLGLDIETATRAGKQIVERILEEEPDEALKMPASRYLTDMTLEEMSRDWFMLMPKQKVAGSLCIKMDQAIMDKTIILKANFSVILDRLETLILLRAFTEEGAIVGEISPLPSLPGHTGEDVKNAIGVLIGGLEWNDNTVRVSETIQRFAWRSSDEDGRLPLPPNQKRKMARTIESEV”, with “not failed”. Then “MKILVFGGTRFFGKKLVERLVSEGHDVTIGTRGKTEDNFGDTVKRVVLNRESRDALFQLAKEDWDVIYDNICFSPKEALYAVDAFKGKVKRYIYTSSLSVYSQKGRALVEADFNPEHYEIVIGDKEDFDYGEGKRLAEAVFFQKASFPVVAVRFPIVLGLDDYTKRLHFHINHIKNHQEIGISNGQAEIGFITSDEAAHFLEWVGVESDLTGPVNATSNGTYALNGFIKMLEEKIGELALVEEVTDDVDDSPFGIEKTYYLDNAKATEAGFVFNDLKVWLPALVTDILKENLEHHHHHH”, with “failed”. For “MKHTLVITILIIMFSNGATAEEDKRSINESTTNMIAALQQKQWIHGSQDCKNNQDPAIEVFQYDESSYVLRQNKCLSYEAPFIYVLIGKEKILVVDTGATESAEEFPLYQTVQSLNQKHSDNGKTKEREIVVIHSHSHSDHYSADSQFVGQANVTVVAANNTGVNEFFDFEKWPEQQTNFELGGRSITIIPTPGHQEEAISVYDPQTKWLLTGDTFYPGYIYVKTWQDYKNSIARLVEFTNNHSVSAILGSHIEMTNKAGEYYEIGTIYQPNESSLLLTPSDLTALNEKLQQVDEPEKIAMDSLIVEPLGALPKLISSIAKWFIG”, the protein production entry is on record as “failed”.

As for “MIWQLIDKHRQSFGVEPLCRVLQVSPSAYRRHAARLRDRSRRSARAIRDEELAVQIHRVWQENYEVYGARKVWRQMHREHQVVARCTVERLMREMGLCGVTRGKTVKTTQPDPDNANPRDLVKRQFTAERPNQLWVADFTFVSTWQGFAYVAFIVDVYSRFIVGWRVSRHMRTEFVLDALEQALHTRRPEPHRLVHHSDRGSQYLSIRYSERLGEAGIEPSVGNTGDSYDNALAETINGLYKTELIHKRGPWKSVDSLEWETLKWVTWFNHQRLLEPIGNRPPAEFEALYEQSQATISVAA”, the protein production entry is “failed”. Then “ARRPMNAFLLFCKRHRSLVRQEHPRLDNRGATKILADWWAVLDPKEKQKYTDMAKEYKDAFMKANPGYR”, with “not failed”.
